Experiment: soluble on expression in E. coli; label from the status in PepcDB or PDB records

Sequence | soluble on expression in E. coli
SLANIREIAKRAGISIATVSRHLNNTGYVSEDAREKIQKVVDELNYTPNALARAMFTKNSKTIGLMVPNISNPFFNQMASVIEEYAKNKGYTLFLCNTDDDKEKEKTYLEVLQSHRVAGIIASRSQCEDEYANIDIPVVAFENHILDNIITISSDNYNGGRMAFDHLYEKGCRKILHIKGPEVFEATELRYKGFLDGARAKDLEIDFIEFQHDFQVKMLEEDINSMKDIVNYDGIFVFNDIAAATVMRALKKRGVSIPQEVQIIGFDNSFIGELLYPSLTTINQPIEALAYTIIELLIKIINGEGVLIEDYIMEVKLIERETTISLKDEG | soluble
MGSDKIHHHHHHMNIVSQLSPVTLSPELIARFTAIVGDKHALTDPLELEAYITEERNLYRGHSPLVLRPGSTEEVVAICKLANEARVALVPQGGNTGLVGGQTPHNGEVVISLKRMDKIREIDTSSNTITVEAGAILQRVQEKAAEVDRLFPLSLGAQGSCTIGGNLSTNAGGTAALAYGLARDMALGVEVVLADGRVMNLLSKLKKDNTGYDLRDLFIGAEGTLGIITAATLKLFPKPRAVETAFVGLQSPDDALKLLGIAQGEAAGNLTSFELIAETPLDFSVRHANNRDPLEARYPWYVLIELSSPRDDARAALESILERGFEDGIVVDAAIANSVQQQQAFWKLREEISPAQKPEGGSIKHDISVPVAAVPQFIEQANAAVVALIPGARPVPFGHLGDGNIHYNVSQPVGADKAEFLARWHDVSQVVFEVVLRLGGSISAEHGIGVMKRDELAEVKDKTAIELMRSIKALLDPHGIMNPGKVV | not soluble
MLNQSLRPLVNVQVRSVSSKYPRPTPRHFKRRLFEAALKPELPPTVNMCIPPGLIKREHTGKSKEYSDVELALSNLVRDWMVREEFRVMAVCQFLPVPGRTLWFAKNQLRSKNIEFRSYGNKILKKIFDKTPMSSLNTVLVGNNAILLAKDISAIKSILQETDKLNWIEPLVMMADGRIVDMVDARELAKLSSLEDLRAHTVQLLGQQVAQVTISLDTVTRHLPSLLDSHISTNQEAKK | not soluble
MTKIAFTGGGTVGHVSVNLSLIPTALSQGYEALYIGSKNGIEREMIESQLPEIKYYPISSGKLRRYISLENAKDVFKVLKGILDARKVLKKEKPDLLFSKGGFVSVPVVIAAKSLNIPTIIHESDLTPGLANKIALKFAKKIYTTFEETLNYLPKEKADFIGATIREDLKNGNAHNGYQLTGFNENKKVLLVMGGSLGSKKLNSIIRENLDALLQQYQVIHLTGKGLKDAQVKKSGYIQYEFVKEDLTDLLAITDTVISRAGSNAIYEFLTLRIPMLLVPLGLDQSRGDQIDNANHFADKGYAKAIDEEQLTAQILLQELNEMEQERTRIINNMKSYEQSYTKEALFDKMIKDALN | not soluble
MVHPALEFSDCYSDSPDFRERLKCYENELEKTNKFLKDVIKDGNNVINTFKEYSLAVQKFSQTLQSFQFDFIGDTLTDDEMNIAESFREFAGLLQDVEEARMMLVQNASDLLIKPLEKFRKEQIGVTKERRKKFEKESEKYYSQLDKHVNLSSKKKETQLQEADEQLDKERQAFYESSVEYVYQIQQVQEKKKFDVVEPVLAFLQSILTLNNLTVEMYTFRNKGTKCNTGEIPFQKVQFCTIQVDISTFMVHFCTFKLYFCTFKIP | not soluble
GIRSLDGQEDEFDANEQEEIEAKRECALRGRVSVAITPAQSREHGQGDQHGGDRSTHTDDPQAGPWHSAAPAQLSDSIRTCIDAIVDRYVTRRDADPVAKRHALAAALVELRAVGVSHPAVAPLTATIWRLMREHLRAYDKATAAENLLALRTRLLELMPSELEPVPALRNFHLLLPLILLNAEKPRRRVDRTHAITRLNTLLIEQPQQAAQEVRP | not soluble
MQLSKALSLRRVLNSGFHPFQVIPKPDVWMKRERLNRFTAWQYASERSTVKGAYRKEDKIFAYLNMQRQDERNLEKFHAEERVRTALEEHDMEYSKFKSILSQSHILLDNICLSQLAIYEPRSFRSLVAFAKELARQEGMNVIPDDAEFSYDVHVDNKSVLRKPLPRAVEYTRGASENHTNKPRKLREDEY | not soluble
MAHHHHHHMMKLNRNVLFKKGEKITYSVKSVIFIINVIRTRGEEDDDNNNISGKSILGTSHNNISNIDLSSIPNLDSNIHASFSSDTKEWSPNNLTSKKKKKKKEIRPKDIMSNSDSSNTSSINKQNNNQIKSVLLKENKGVKITGPCNVNLSIFLVPHIYIDVETKYNNIELKYELDEFSDSIKFKDTTTELRTSDDTLMNTNFNVGVSRDTLDKDRLYNICAENKTFKFVVYIKDNILTLKWKVYETGVTNNKVDIRQYKMKELTRPITTIQIHSVSENKDTHLLESKNYVIKTDIPETCDVMATNCFLSGNINIEKCLECTLLVQNNDTSSECFTYVSNDVRENFNQIKAEAEDDENFRNYHLTDTINNILKRIYKINKNEGKKELITLEELDNFLKESITDYCKILREIDTNGTLVNHELGNNVDVFNNLIRLLKLHKNESISTLHNKLRNSAICMKYPDKWIEKKTGLILPNVVNNNIIYNNKYEKLNEEKKRKIYDNKDDSKISDIINIKKYIFTNNTLKYFNNDKQFCNSSFCNRLKDENNCISKIQIEDQGNCAISWIFASKYYLETLKCMKGYEPHAISALYIANCSKRKHKNRCNVGSNPLEFLQIIEENQFLPMDTNYLYSYTKVGNDCPDEEKNWVNLLKHTRMLNYNNKHRSTLSTKAYRAYESEHFKDKMDTFIKLIKDEIMNNGSVIAYVKAENVLGYELNGKNVQNLCGDKTPDHAVNIVGYGNYINDEDEKKSYWIVRNSWGKYWGDEGYFKVDMYGPSTCEDNFIHTVVVFNINMPKSKKSPVKITFPLYNYYLKYSPDFYHNLYYKNFNSKKSMKLVNASDEHKNIYSQEDKVNHKKGSKILNSEVTTSLLSQEISQRRGEDDDIDTLIGDSPDINEQEKNIKDEFNKSSITHNSVSSSNITKSNKNTNKVKIYHIIKHVKNTKIKIGFVKYDNYNTIGTNHTCSRSYSEDQEKHEGCIKFCELHWNECKDKTSPGYCLTKLKGSNECFFCYV | not soluble
MGHHHHHHSHLRHKEPGSGSGGGVYWVDSQQKRYVPVKGDHVIGIVTAKSGDIFKVDVGGSEPASLSYLSFEGATKRNRPNVQAISSRL | not soluble
MSLSDSNDDRPFRPFQSQYRWPGVDLLAYKEEGSAPFRSVTRQVLFSGNGLTGELRYFEVGPGGHSTLERHQHAHGVMILKGRGHAMVGRAVSAVAPYDLVTIPGWSWHQFRAPADEALGFLCMVNAERDKPQLPTEGHHHHHH | not soluble
SLIPIFIAKRENGEKIHLLDHHDEELLHHMRKRESFFCIACGKEVLMRLGKQKRWHFAHKKVDSCLAFYEAESTYHMYGKELLYRWFKRQNVHVEIEHYLPEIRQRPDIFIERAGKQIAIEYQCANLSIEQLCKRTYSYWRAGIQVIWIIGGNQLKKHSAYWMKFSSLMAFSLQSYPQPLLIFFCSKQKSFMKCTFITSFSTSVAFSHIIYLPIETTTFEMLFSPVPFQREVLNREWKRRKDYFRQNALPILNYNHKSLLRLLYQCKCNPANFPSEIGVPLPSSFAFQTNSFIWQAFLYMNCIGELAVGDCISLKYVCSYIKKYTKRRMLPYFSQH | not soluble
EQVVARKKLEESESRFRALVNASSDVVYRMNADWTVMRELEGRDFLTPAGTAMADWVETYTYREDRALVKATAAAAIEGKRIFELEHRVLKADGTIGWTFSRAIPILDEQGNIIEWFGSAADIT | not soluble
MKPNITWGLQKIQAHGIADNTIYATEGTQIIFTVTSPWIPVFKVNDDVKIALTLTRHEEAWWIINQSTEYCCTVNDQIVEPHHRMRLNEGDLIEWGLSS | not soluble
MAISKRHIGPYIIRETLGEGSFGKVKLATHYKTQQKVALKFISRQLLKKSDMHMRVEREISYLKLLRHPHIIKLYDVITTPTDIVMVIEYAGGELFDYIVEKKRMTEDEGRRFFQQIICAIEYCHRHKIVHRDLKPENLLLDDNLNVKIADFGLSNIMTDGNFLKTSCGSPNYAAPEVINGKLYAGPEVDVWSCGIVLYVMLVGRLPFDDEFIPNLFKKVNSCVYVMPDFLSPGAQSLIRRMIVADPMQRITIQEIRRDPWFNVNLPDYLRPMEEVQGSYADSRIVSKLGEAMGFSEDYIVEALRSDENNEVKEAYNLLHENQVIQEKLEHHHHHH | soluble
MAHHHHHHMLQRVLARLPGAPACISDPLHMRALLELIGYVEPGDNLNRVAYAGELHYPPQAHAFMAELLAEGRQRDGGDAFDAIRERRAGPGYAIDSATTSEVDDAIGVCVDGATGAKYFVVYVSDATVYCPFDSTLEQLTARRLTTTTYLPEGVFFMLPKPIVEAATLREDRPCRTFNVIFQIDESTGEVKNYSVAVGWLDQLRRITYDQVQEIVNKEEGKEEGDEHDSAAVVAAAHDTDASSSPPLLAGCADSAHPPPAWMTREDKDNLFYILRCARLRLRARLERQQRQQQQHHHGAGGKDCGDEGVPATPPVDFSLPDPLIEVKGTKVLSVTDQVISTQDARLAVAELMIAANEVCSRVAQANHIAMPFRGTRTLSSDHLVAHYYTEPEGVRTLMSLDASHIFLAEAMQSSVRRLSTVTRAIYHHVPLHHAGLDTTFYTHSTSPLRRYADMLVHHQLKTWLWQQRRGGGSSDHTSATSTSAARAAMVAAPQQLIPEHAMASLCTMISAKQERASLLQDNSTRFWILRYLEDLERASANAAAAARGDGDGDTHRKKTYLCLVGETRRVVAAPAYSRFACSSAEMSQLLSLPLTAPSTTSSTVRRPASLQMDAVARWRQETPEFTYVSDVYIPEVQLAHTITHHRDDVLVGAVLECHITRVQPTQGVLELAIERVLPGGDERHYERLWMGGFVSQLDA | not soluble
MNQSDVLSNSMKQATINNEAHVIIDDIDTAHKELDILQQEVDKVIFGQNHVIEYALTSILAGGHALLVGVPGLAKTRLVETLGIVLGLDEKRIQFTPDLMPSDIIGSEIMDSDKSGKRSFRYLQGPIFTQLLMADEINRASPRTQSALLQAMQEYHVTVAGTRYDLPQPFHVLATQNPLEQEGTYPLPEAQLDRFLMQIDIDYPDLTTERRIILDTTGGKNQNAKPVLSAKTLQKIQKIVRKMPISENVVEAILKLVRSARPHKENSLANTYVAWGPGPRASQALSLCARARALYHGRLSPSLDDIATLACPVLQHRMALNFSARAENITIKDIIDNLVKDAL | not soluble
SEPGETIVEAMQREVKEEAGLLCEPVTLLSVEERGASWIRFVFLARPTGGVLKTSKDADSESLQAGWYPRVSLPTPLRAHDVLHLVELGAKFCQQAMHPLILPQELPCSVVCQRLVTTFTTVQSVWVLVGTVGTPHLPITACGFTPMEQRGGIKVAILRLLQECLTLHSLAVETKGLLGLQHLGRDHVDGVCLNVLVTVAFRNPGIQDEPPKIRGENYFWWKVLEEDLQKLLLYRLQESSVIPLSR | soluble
MGSDKIHHHHHHMQSIMPEADYSFLSMDPTMNANTGNKDSLATPSHTPQLQAFCDVVESRRSVRRFTDAPIPDDVLADCLRLAMLAPNSSNLQPWEFYVIDDADKRKRAVKNCMNQNAAKTSARLIAVVARTDVWHDHAKKILREYPDMPVPKKVKDYYNKVVALDFLRGPANVVSVAKWSAIQVVRRIKGPIKSPYYTFEDTKNWATNNTALAAGNLMLALRAHGFDSCPMGGFDEPAMKRLLKLSNHHHIVMMIGAGERADNGVYNTQFRFEQDQFVHYV | not soluble
MSSALLRAAYAYDRLRAHPPEVAGQIATAMASAVHPKGEEPVFLELGVGTGRIALPLIARGYRYIALDADAAMLEVFRQKIAGVDRKVQVVQADARAIPLPDESVHGVIVVHLWHLVPDWPKVLAEAIRVLKPGGALLEGWDQAEASPEWTLQERWRAFAAEEGFPVERGLHAKRLKEVEEALRRLGLKPRTREVARWREERTPREALEALSERLYSFTQGLPEPVHARVMERLWAWAEAELGDLDRPFPVEKRFLLRVSRLG | soluble
